From US5744166A, “Drug delivery compositions” (Danbiosyst UK Limited, priority 1989, dated 1998)

What was measured:
[1] = Intranasal absorption of insulin solutions in anaesthetised rats: blood glucose; assay type: in vivo, rat (male Wistar); conditions: phosphate buffer pH 7.3; for Blood Glucose Levels: 120 minutes after intranasal administration, 16.7 IU/kg insulin, level at administration about 3.5 to 4.0
Protocol: A rat in vivo experimental model, modified from that originally described by Hirai et al., Int. […] Male Wistar rats (Bantin and Kingman) of approximate weight 200-250 g, fasted overnight for about 20 hours, are anesthetized by i.p. injection of 80 mg/kg pentobarbitone sodium (60 mg/ml Sagatal™, May and Baker) with further i.p. injections of 0.05 ml when necessary to maintain a suitable level of anaesthesia. The rats are tracheotomized, the esophagus sealed and the carotid artery and jugular vein cannulated.
The DEAE-dextran used in these experiments has a molecular weight of 500,000.
This will give the same end solutions. […] An insulin solution containing the Laureth-9 enhancer system was prepared in a similar way.
A volume of 20 μl was administered.
Blood samples of 0.2 ml were collected in Fluoride oxalate tubes from the carotid artery at 10 and 5 min. prior to the insulin administration and at 5, 15, 30, 45, 60, 90, 120, 180, 240 and 300 min. post-administration. The samples were kept for a short time on crushed ice until analyzed on a Yellow Springs 23 AM glucose analyser by the glucose oxidase method.

[2] = Effect of pH on insulin/DEAE-dextran solutions (pH and appearance); assay type: physicochemical
Protocol: Solutions containing DEAE-Dextran 1% w/v and Na-Insulin 167 IU/ml were prepared, separately and combined, in phosphate buffer (pH 7.3) and their pH measured using a Gallenkamp pH stick. The appearance of each solution was noted. The effect of addition of 1M sodium hydroxide solution (NaOH) or 0.1M hydrochloric acid (HCl) was determined.

## Insulin alone: semisynthetic human Na-insulin, 167 IU/ml in phosphate buffer
[1]
  Blood Glucose Levels: ~5.1 mmol/L
[1]; listed as insulin solution alone
  Blood Glucose Levels: about 5 mmol/l
[1]; intranasal
  effect on blood glucose level (in words): does not significantly lower the blood glucose level
[2]; 0.1M HCl
  pH at which solution became turbid on addition of acid: 6.65
  pH at which solution cleared / was clear on addition of acid: 4.14
[2]; 1.0M NaOH
  appearance on addition of 1.0M NaOH: no effect on solution appearance which remained clear
[2]; DEAE-dextran 1% w/v and/or Na-insulin 167 IU/ml in phosphate buffer (pH 7.3)
  pH of solution: 7.38
[2]; as prepared in phosphate buffer, no acid or base added
  appearance of solution: clear
